Test results taken from patent US12331110B2, “Monoclonal antibodies against endotrophin and the use thereof” (THE BOARD OF REGENTS OF THE UNIVERSITY OF TEXAS SYSTEM, priority 2018, dated 2025).

Experiments:
[1] = biological target: T1, recombinant endotrophin protein (Homo sapiens, UniProt P12111); assay: Affinity measurement with BLI (Octet RED96); details: Octet (96-Red), 1:1 binding model
T1 construct: the latter consisting of 77 amino acids at the carboxy-terminal of the COL6α3 chain; CD33 signal peptide (N, cleaved yes); His-tag with EK-cleavage site (N, cleaved yes); purchased Sino Biological, Beijing, China; host or cells: HEK293
Procedure: FIGS. 12A-B. Kinetic sensorgrams for ETP-mAb4 (FIG. 12A) and each of the humanized antibodies (FIG. 12B). […]
For antibody affinity measurement, antibody (30 μg/mL) was loaded onto the protein A biosensors for 4 min. Following a short baseline in kinetics buffer, the loaded biosensors were exposed to a series of recombinant endotrophin protein at 0.1-200 nM and background subtraction was used to correct for sensor drifting. All experiments were performed with shaking at 1,000 rpm. Background wavelength shifts were measured from reference biosensors that were loaded only with antibody. Kinetic sensorgrams for each antibody are shown in FIGS. 12A&B. ForteBio's data analysis software was used to fit the data to a 1:1 binding model to extract an association rate and dissociation rate. The Kd was calculated using the ratio of koff/kon and the estimated values of […] for endotrophin ETP-mAb4 and 4 humanized ETP-hMab4 antibodies are listed in Table 4.

MDA-MB-231 cells = assay: MDA-MB-231 tumor growth in nude mice; type: in vivo
Procedure: FIGS. 6A-D. The antibody effects on MDA-MB-231 cells in vivo. (FIG. 6A) MDA-MB-231 cells (2×10^6 cells) were implanted into nude mice. Then 2.5 mg/kg of cisplatin and 20 mg/kg of ETPmAb4 antibody (twice a week) were injected after 10-days implantation for 5-weeks. Tumor volume was determined by caliper measurement. The insert reflects a simplified analysis of control antibody versus ETPmAb4 with associated statistics. (FIG. 6B) MDA-MB-231 cells (2×10^6 cells) were implanted into nude mice. Treatment was started when the tumor volume was over 30 mm^3. At that point, 2.5 mg/kg of cisplatin and 20 mg/kg of ETPmAb4 antibody (twice weekly) were injected for 5-weeks. Tumor volumes were determined by caliper measurements. The insert reflects a simplified analysis of control antibody versus ETPmAb4 with associated statistics. (FIG. 6C) SKOV3 cells (2×10^6 cells) were implanted into nude mice. Then 2.5 mg/kg of cisplatin and 20 mg/kg of ETPmAb4 antibody (twice weekly) were injected 10-days after implantation for 5-weeks. Tumor volumes were determined by caliper measurements. The insert reflects a simplified analysis of control antibody versus ETPmAb4 with associated statistics. (FIG. 6D) MDA-MB-231 cells (2×10^6 cells) were implanted into nude mice. Then 2.5 mg/kg of cisplatin, 20 mg/kg of ETPmAb4 antibody and 20 mg/kg of humanized ETPmAb4 antibody (twice a week) were injected after 10-days implantation for 5-weeks. Tumor volume was determined by caliper measurement. […]
Animal experiments. […] Tumors were measured twice a week, beginning 10 days after injection, and tumor volume was calculated by length×(width) 2/2 (mm^3).
Analysis of Tumor Progression. Tumor onset was monitored twice weekly by palpation. Tumor sizes were measured using a digital caliper twice weekly and the volumes were calculated as length× width2)/2. […] Animals were sacrificed when the tumor burden visibly affected the host, or when the tumors reached the IACUC pre-determined limit of 20 mm along one axis. […]
After humanization, the binding affinity of hETPmAb4 to endotrophin was measured in Octet RED96. […]

T1 sequence (P12111 3101-3177): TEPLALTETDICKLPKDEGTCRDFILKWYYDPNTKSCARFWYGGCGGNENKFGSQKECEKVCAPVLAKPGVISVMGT

B1: ETP-mAb4: rabbit monoclonal anti-human endotrophin antibody selected for further study; VH SEQ ID NO: 125, VL SEQ ID NO: 126 (antibody, V domains shown)
VH: SSRVKESGGDLVKPGASLTLTCKASGFSFSSGYYICWVRQAPGKGLEWIACIYGGNNNPYYANWVNGRFTTSKTSSTTVTLQMTNLTGADTATYFCARKDINIGGAYELWGPGTLVTISS
VL: ELVMTQTPASVSEPVGGTVTINCQASQSISSSYLSWYQQKPGQPPKLLIYKASTLASGVPSRFKGSGSGTQFSLTISDLECADAATYYCQYSDWANSYGNAFGGGTEVVVK
- kdis [1]: 2.49 E−04 1/s
- kon [1]: 1.42 E+05 1/Ms
- lesion growth, combination with cisplatinum (MDA-MB-231 cells; 20 mg/kg antibody plus 2.5 mg/kg cisplatin): essentially inhibited lesion growth
- rate of tumor growth, antibody alone (MDA-MB-231 cells; 20 mg/kg twice a week): significantly reduced the rate of tumor growth
